We go through 62 substances from patent publication US20140212436A1.

FcγRIIaR (human), sequence (P12318 34-217 H167R limits assumed): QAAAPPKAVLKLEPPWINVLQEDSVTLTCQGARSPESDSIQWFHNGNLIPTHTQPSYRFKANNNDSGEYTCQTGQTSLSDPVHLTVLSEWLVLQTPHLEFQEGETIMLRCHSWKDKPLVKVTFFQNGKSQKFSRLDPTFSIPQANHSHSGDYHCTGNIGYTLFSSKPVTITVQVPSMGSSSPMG

One test has as its target FcγRIIaR (human) (UniProt P12318). The experiment in a line: Biacore. For orientation: SPR reads the build-up and loss of mass on a sensor chip optically.
In general, Kd refers to the free concentration of one partner at which half of the binding sites on the other are occupied at equilibrium, for simple one-to-one binding. In the case of L235T/S267E (antibody), the Fold came out at 3.06 and the dissociation constant (Kd) was determined as 281 nM.
For H268N (antibody), in that order: 1.79 and 481 nM.
For G237Q (antibody) the same measures were 0.0859 and 10000 nM.
For G236K (antibody) the same measures were 0.00859 and 100000 nM.
S267E/L328I (antibody) registered a Fold of 74 and a Kd of 11.6 nM.
G237S (antibody) showed a Fold of 0.081 and a Kd of 10600 nM.
L235Q (antibody) came in with a Fold of 2.04 and a Kd of 420 nM.
H268Q (antibody): the Fold was found to be 1.58 and the Kd was 544 nM.
In the case of G236H (antibody), the Fold is 0.135 and the equilibrium dissociation constant (Kd) stood at 6350 nM.

A further test deals with recombinant human FcγRIIb protein (human) (UniProt P31994). In words: Biacore.
recombinant human FcγRIIb protein (human), sequence (P31994 46-217 limits assumed): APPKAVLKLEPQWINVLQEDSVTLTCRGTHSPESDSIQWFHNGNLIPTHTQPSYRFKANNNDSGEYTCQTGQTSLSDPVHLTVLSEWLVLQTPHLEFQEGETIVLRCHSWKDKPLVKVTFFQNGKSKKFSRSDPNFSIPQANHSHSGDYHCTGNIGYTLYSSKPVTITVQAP
H268D/A327D (antibody): the Fold came out at 7.68 and the Kd stood at 191 nM.
For S239D/L328Y (antibody), in that order: 5.56 and 264 nM.
For L235T/S267E (antibody) the same measures were 2.37 and 619 nM.
For H268N (antibody) the same measures were 1.17 and 1250 nM.
With S239D/H268D/L328F (antibody), the Fold is 8.79 and the dissociation constant Kd worked out at 167 nM.
On to G237Q (antibody), for which the Fold came to 0.147 and the Kd worked out at 10000 nM.
For G236K (antibody) the same measures were 0.0147 and 100000 nM.
As to L235Y/S267D (antibody), the Fold worked out at 15.9 and the Kd stood at 92.2 nM.
Take L235F/S239D/L328Y (antibody): the Fold was found to be 6.82 and the dissociation constant Kd is 215 nM.
For L234E/H268D (antibody) the same measures were 5.89 and 249 nM.
On to S267E/L328I (antibody), for which the Fold came to 53.4 and the Kd was 27.5 nM.
As for G237S (antibody), the Fold amounted to 0.147 and the Kd came out at 10000 nM.
For G236D/H268D (antibody), in that order: 11.6 and 126 nM.
For S267D/H268D (antibody), in that order: 14.2 and 103 nM.
For the substance K326D/L328Y/I332E (antibody), the Fold turned out to be 2.65 and the equilibrium dissociation constant (Kd) amounted to 553 nM.
For G236A/G237A (antibody), in that order: 0.0578 and 25400 nM.
For the substance H268D/L328W/I332E (antibody), the Fold was 39.8 and the Kd came to 36.9 nM.
On to S239D/H268D/L328W (antibody), for which the Fold was found to be 51.1 and the Kd came to 28.7 nM.
Take L235F/H268D/L328Y (antibody): the Fold stood at 3.97 and the equilibrium dissociation constant (Kd) worked out at 370 nM.
Turning to A330K (antibody), the Fold was 1.55 and the dissociation constant (Kd) was 947 nM.
For L234W/H268D/L328Y (antibody) the same measures were 5.92 and 248 nM.
For S239D/H268D (antibody) the same measures were 14.4 and 102 nM.
For S267E/H268D (antibody), in that order: 33.3 and 44 nM.
Take K326W (antibody): the Fold was 3.04 and the Kd was 483 nM.
For S239D/H268D/L328Y/I332E (antibody), in that order: 54.1 and 27.1 nM.
Turning to G236S/G237A (antibody), the Fold was 0.0797 and the Kd is 18400 nM.
For S239D/S267A/L328Y (antibody) the same measures were 19.8 and 74.1 nM.
As to S239D/H268D/L328F/I332E (antibody), the Fold amounted to 53.2 and the dissociation constant (Kd) is 27.6 nM.
For K326E (antibody), in that order: 6.09 and 241 nM.
For S239D/A327D/L328Y (antibody) the same measures were 11.9 and 123 nM.
For A327D/L328Y/I332E (antibody) the same measures were 2.31 and 636 nM.
For the substance H268D/A327D/L328Y (antibody), the Fold was 3.49 and the dissociation constant (Kd) amounted to 420 nM.
For L234W/L328Y/I332E (antibody), in that order: 6.32 and 232 nM.
Take L234W/S239D/L328Y (antibody): the Fold was 32.8 and the equilibrium dissociation constant (Kd) is 44.8 nM.
For S267D/A327D (antibody) the same measures were 6.89 and 213 nM.
For S267A/L328Y/I332E (antibody) the same measures were 13.5 and 109 nM.
On to H268D/K326D/L328Y (antibody), for which the Fold was 18.6 and the Kd turned out to be 78.9 nM.
For S239D/L328Y/I332E (antibody), in that order: 7.41 and 198 nM.
For S267E/L328Q (antibody) the same measures were 12.1 and 121 nM.
Consider S267D/A327E (antibody), for which the Fold amounted to 12.1 and the Kd worked out at 121 nM.
For L235D/S239D (antibody), in that order: 4.11 and 357 nM.
For P331S (antibody) the same measures were 0.0372 and 39400 nM.
For S239D/H268E/L328Y (antibody) the same measures were 21.7 and 67.7 nM.
Consider S239D/K326D/L328Y (antibody), for which the Fold stood at 13 and the Kd amounted to 113 nM.
Turning to S239D/S267E/I332E (antibody), the Fold is 124 and the Kd amounted to 11.8 nM.
For S239D/H268D/L328Y (antibody), the Fold was found to be 24.4 and the Kd was found to be 60.1 nM.
For H268D/L328F/I332E (antibody), in that order: 12.3 and 119 nM.
For the substance L235S/S267E (antibody), the equilibrium dissociation constant (Kd) was determined as 37800 nM.
Take A330S (antibody): the Fold came out at 0.0635 and the Kd was 23100 nM.
With H268D/L328Y/I332E (antibody), the Fold is 4.89 and the Kd came to 300 nM.
For S239D/S267D (antibody) the same measures were 22.3 and 65.9 nM.
For S267D/H268E (antibody), in that order: 17.8 and 82.6 nM.
For the substance S239D/H268D/L328W/I332E (antibody), the Fold was 27.8 and the Kd was found to be 52.7 nM.
With S267A/H268D/L328Y (antibody), the Fold amounted to 10.7 and the Kd came to 137 nM.
As to L235F/L328Y/I332E (antibody), the Fold turned out to be 3.31 and the dissociation constant Kd amounted to 443 nM.
For S239D/L328F/I332E (antibody), in that order: 8.34 and 176 nM.
Take H268D/L328Y (antibody): the Fold is 1.91 and the Kd came out at 767 nM.
Regarding H268E/L328Y/I332E (antibody), the Fold came to 8.53 and the equilibrium dissociation constant (Kd) amounted to 172 nM.
For L328Y/I332E (antibody), in that order: 2.08 and 705 nM.
